Assay results reported in PMC3600519, “Acute toxicity of vipoxin and its components: is the acidic component an “inhibitor” of PLA2 toxicity?” (Interdisciplinary Toxicology, 2012).

Target: T1, vipoxin basic and toxic phospholipase A2 subunit (Vipera ammodytes meridionalis, UniProt P14420 1-122)
T1 sequence: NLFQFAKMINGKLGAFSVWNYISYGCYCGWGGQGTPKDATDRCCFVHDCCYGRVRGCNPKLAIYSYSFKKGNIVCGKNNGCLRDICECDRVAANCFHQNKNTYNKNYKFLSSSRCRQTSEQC
Assay: cell-based or functional assay

B1: vipoxin's acidic component (natural protein)
chain: NLFQFGDMILQKTGKEAVHSYAIYGCYCGWGGQGRAQDATDRCCFAQDCCYGRVNDCNPKTATYTYSFENGDIVCGDNDLCLRAVCECDRAAAICLGENVNTYDKNYEYYSISHCTEESEQC
- residual PLA2 enzyme activity (NOBA substrate) of reconstituted complex PLA2 + VAC (1:1 molar ratio), pre-incubation 1 min to 24 h (100, 120, 115, 114, 114, 113, 108, 78 %): 120%
